Experimental data taken from publication PMC5024094, “Identification of a novel sesquiterpene biosynthetic machinery involved in astellolide biosynthesis” (Scientific Reports, 2016).

Columns and labels:
purified protein [1] = substrate: O=C(O)c1ccc(O)cc1; assay: purified protein; details: A-domain, 2.5 mM ATP, 5 mM MgCl2, 50 mM Tris-HCl pH 7.4, 1 mM DTT, 2 μM AstA, Sfp modification of T-domain essential
purified protein [2] = substrate: O=C(O)c1ccccc1; assay: purified protein; format: biochemical, Aspergillus oryzae; details: A-domain, 2.5 mM ATP, 5 mM MgCl2, 50 mM Tris-HCl pH 7.4, 1 mM DTT, 2 μM AstA, Sfp modification of T-domain essential

B1: AstA (Aspergillus oryzae RIB40) (protein)
chain: MDLEPWGPLYRKQDQDGSLDNIAVVSGDIPSPHPKNEPSQTSTLHIPRDSDLDSDIPSVPTALIIAWGLTLSSLTGDEVVGFDLLPFRGDYQDLGARPYHFLLKFGYREWSREAATTGMDLGSASSEGLPQGMGNRPQIAPSRFRNVLIIKQCSDAPGDSGSLESPSLGNVDKDEPTDAFRADMFISIQCGIGRTGIDVHCSFDPAFWTSENIRMILLDLSRNFKEVMRCGRDDTPLTCLEGMSPKGLDCVLRRNIIPPPPKMEACVHHRFQARCRQNPSALAIDAWDGQLTYAELDSLSSQLASRLVSSITICPRGFMGVLMEKSAWVPVAILAVLKVGSAFVFLDGSQPLQRLKIICAETKSQLVLSSAHYREKANTLGPPVLLVEKNQSGLGQAKENDSCPSLLEDYPQPQSQPQDTLYAVFTSGSTGEPKGAMVDHGAFCTMCGPQMAARPTTNVSPRVFQFAPHAFTVSILDYLGTLLQGGCVCVPSEEELRNNMAGAIEGLSANIVTMTPSMARVLDPTQTPSLQLVLLAGEMMAQCDLDKWSQCVRLLSLYGQSENAAGSMISEKSIVPRAPNTFETLTPGFQCWIVSQDNPHRLMALGEVGELLLEGPALGQGYMNDPIQTEDKFICRSFCLEYAHSGSPQSYRLFKTGDLVRYTPAGEIELLGRKGAEVKLRGQRIDLTEIEHHLRCLFPSATRVVADVIIPSDDIDGLHPVLAAFVQVDSVSRTGQSAEATFASPRPEFRAEAKAVLSGLCQTIPSYMIPMTIIPTEAFPFTATGKLDRRSLRQYASAMSRSDLLKYVTDDRGPVVTAVTPVEIIIHDACVEALGVSSDKVGMLDSFPDLGGDSLAARRMVSICRTKGLELAVADILAHSSLTSLAEKCSAGGGGAKQISQGVEMLDPFSTAKEEFLSHLPSFLPNADMIADVFPVQGAQRRAARAIDTFIFRLSGPVDADRLRDACQVLQQAHLALRSIFVPFYGKFMQVVLRVPPLDFTRRLLPDGTDLVKWAESIGQADKTQRPPSEEFVVRFTLAETAGTPDYSIFMMRLSHAQYDAGCLARIISDLWAVYEQKQLVVKSDFAQYARRAVQQTHLLSMEAFWRDLLAGTTGLTPLPVTGISAEEERTIIVQQRVELKEPPPTGISMATVVRGAWSWVLHQQTGNTVVVFNEMLNGRDVVPLEDTEPVVGACHSIVPVCVHFPLPQSGRTPRELLSALQEQHLASLTFTTLDRDYLIQNCTEWTSHQSGFILAYQNFPEICDLVIGEDLSCQWASQVLDLAEPGEAWVTATPLPGALQISLRVSTAAMDEQEANAWISALGQTIIRFLDSPDSVL
notes: recombinant, expressed in Escherichia coli BL21, purified; 1338 aa gene product with A, T and C domains; tag details only in supplement
- Km (purified protein [1]): 3.8 µM
- kcat (purified protein [1]): 0.98 min⁻¹
- Km (purified protein [2]): 4.9 µM
- kcat (purified protein [2]): 1.33 min⁻¹
